Blank lines part the entries; values can stand above or below the substance they belong to.
Assays:
[1] = target: T1, EfCodY (Enterococcus faecalis) (UniProt Q834K5); assay: BLI; settings: BLI: 20 mM Tris-HCl pH 8, 150 mM NaCl, 2 mM MgCl2, 0.1% NP-40, 25 C, 2 mM GTP and/or 10 mM Ile/Leu/Val as stated
T1 sequence: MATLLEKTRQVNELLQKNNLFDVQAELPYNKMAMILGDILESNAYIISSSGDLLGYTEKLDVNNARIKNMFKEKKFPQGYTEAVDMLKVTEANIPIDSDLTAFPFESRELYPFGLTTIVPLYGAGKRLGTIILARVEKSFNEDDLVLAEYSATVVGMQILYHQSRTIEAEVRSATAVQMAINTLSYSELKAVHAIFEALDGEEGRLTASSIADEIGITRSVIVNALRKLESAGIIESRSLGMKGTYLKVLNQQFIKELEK

[2] = target: Staphylococcus aureus CodY (SaCodY), full length (Staphylococcus aureus) (UniProt Q2FHI3); assay: SEC-MALS; Superdex 75 10/300, 0.4 ml/min; 200 ul of 35 uM CodY, ligand-free, 20 mM Tris-HCl pH 8, 200 mM NaCl

Substance: 26-nt overlapping sites
- Kd [1]: 710 nM

- stoichiometry N [2]: 2
Substance: Staphylococcus aureus CodY (SaCodY), full length (from UniProt Q2FHI3 1-257) (natural protein)

Substance: single 15-nt consensus site
- Kd ([1]; 10 mM Leu (implied), values printed as pair, assigned by order): 706 nM
